From patent US20160090422A1 (Genentech, published 2016)
Residue numbers refer to the chain shown, from its start. One block for each binder: values may come before it.

Experiments:
rhesus monkey CRTh2 [1] = target: T1, rhesus monkey CRTh2 (rhesus monkey, UniProt Q9Y5Y4 1-395 (human entry)); assay: flow cytometry, 293 cells expressing rhesus CRTh2 [Cont.]
T1 construct: also native on primary rhesus basophils and eosinophils; also called rhesus CRTh2
T1 chain: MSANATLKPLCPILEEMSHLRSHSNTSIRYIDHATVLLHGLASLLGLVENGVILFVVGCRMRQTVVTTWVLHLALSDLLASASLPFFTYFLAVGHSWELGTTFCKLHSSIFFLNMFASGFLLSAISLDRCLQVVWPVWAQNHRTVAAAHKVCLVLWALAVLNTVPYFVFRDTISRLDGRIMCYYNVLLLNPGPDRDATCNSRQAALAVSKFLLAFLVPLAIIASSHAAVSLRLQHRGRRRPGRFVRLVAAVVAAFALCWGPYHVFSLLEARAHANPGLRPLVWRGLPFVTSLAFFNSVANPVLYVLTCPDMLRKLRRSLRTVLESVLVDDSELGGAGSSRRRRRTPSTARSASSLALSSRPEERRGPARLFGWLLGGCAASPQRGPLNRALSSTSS

cynomolgus monkey CRTh2 [2] = target: T2, cynomolgus monkey CRTh2 (cynomolgus monkey, UniProt Q9Y5Y4 1-395 (human entry)); assay: flow cytometry, 293 cells expressing cynomolgus CRTh2 [Cont.]
T2 construct: also native on primary cyno basophils and eosinophils; also called cyno CRTh2; cynomologous CRTh2
T2 chain: T1 chain with P193S, P276R, R360H

human CRTh2 [3] = target: T3, human CRTh2 (human, UniProt Q9Y5Y4 1-395); assay: radioligand cell binding assay with homologous competition (Scatchard), 300.19 cells expressing human CRTh2
T3 construct: also native CRTh2 on primary human basophils, eosinophils and Th2 cells; also called hCRTh2; chemoattractant receptor-homologous molecule expressed on T helper 2 cells
T3 sequence: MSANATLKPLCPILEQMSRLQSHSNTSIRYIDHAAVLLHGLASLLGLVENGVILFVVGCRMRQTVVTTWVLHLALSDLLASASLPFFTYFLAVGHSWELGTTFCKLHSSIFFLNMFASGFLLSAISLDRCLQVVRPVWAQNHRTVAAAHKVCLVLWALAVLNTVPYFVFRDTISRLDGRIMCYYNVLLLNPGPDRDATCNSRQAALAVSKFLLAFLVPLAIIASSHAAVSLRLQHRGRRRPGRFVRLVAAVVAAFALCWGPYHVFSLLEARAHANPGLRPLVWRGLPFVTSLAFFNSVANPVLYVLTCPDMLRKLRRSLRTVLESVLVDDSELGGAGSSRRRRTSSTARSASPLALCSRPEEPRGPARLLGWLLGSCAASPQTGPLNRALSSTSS
Procedure: (§1) The equilibrium dissociation constants (KD) for anti-CRTH2 antibodies binding to cells expressing recombinant CRTh2 receptor were determined using a radioligand cell binding assay. […] The cells expressing the CRTh2 receptor were incubated for 2 hours at room temperature with a fixed concentration of iodinated anti-CRTh2 antibody combined with increasing concentrations of unlabeled anti-CRTh2 antibody and including a zero-added, buffer only sample. After the 2-hour incubation, the competition reactions were transferred to a Millipore Multiscreen filter plate and washed 4 times with binding buffer to separate the free from bound iodinated antibody. The filters were counted on a Wallac Wizard 1470 gamma counter. The binding data was evaluated using NewLigand software (Genentech), which uses the fitting algorithm of Munson and Rodbard to determine the binding affinity of the anti-CRTh2 antibody (Munson and Rodbard, Anal. Biochem, 1980; 107: 220-239).
(§2) To obtain a direct measurement of the KD value of humanized antibodies h19A2.v12 and h19A2.v60, Fab fragments of these antibodies were generated and subjected to radioligand cell binding assays (FIG. 4B).

human CRTh2 [4] = target: T3, human CRTh2; assay: radioligand cell binding assay with homologous competition (Scatchard), 293 cells expressing human CRTh2
Procedure: as §1, §2

human CRTh2 [5] = target: T3, human CRTh2; assay: flow cytometry on basophils and eosinophils of human PBMC; antibody at 5 and 0.5 ug/ml, labelled anti-mouse IgG [Cont.]
rhesus monkey CRTh2 [6] = target: T1, rhesus monkey CRTh2; assay: flow cytometry, 293 cells expressing amino-terminal gD-tagged rhesus CRTh2; antibody at 10, 1 and 0.1 ug/ml
cynomolgus monkey CRTh2 [7] = target: T2, cynomolgus monkey CRTh2; assay: radioligand cell binding assay (Scatchard), Fab, 293 cells expressing cynomolgus monkey CRTh2
Procedure: After the 2-hour incubation, the competition reactions were transferred to a Millipore Multiscreen filter plate and washed 4 times with binding buffer to separate the free from bound iodinated antibody. The filters were counted on a Wallac Wizard 1470 gamma counter. The binding data was evaluated using NewLigand software (Genentech), which uses the fitting algorithm of Munson and Rodbard to determine the binding affinity of the anti-CRTh2 antibody (Munson and Rodbard, Anal. Biochem, 1980; 107: 220-239).
as §2
(§3) Radiolabeled ligand analysis with homologous competition was performed to assess the dissociation constant (KD) of anti-CRTh2 antibodies to surface expressed human and cynomolgus monkey CRTh2 on 293 cells. To obtain a direct measurement of the KD value of humanized antibodies h19A2.v52 and h19A2.v46, Fab fragments of these antibodies were generated (FIG. 16).

human CRTh2 [8] = target: T3, human CRTh2; assay: radioligand cell binding assay (Scatchard), Fab, 293 cells expressing human CRTh2
Procedure: as §1, §2

rhesus monkey CRTh2 [9] = target: T1, rhesus monkey CRTh2; assay: flow cytometry, 293 cells expressing rhesus CRTh2; antibody at 0.55, 0.18, 0.06, 0.02 and 0.006 ug/ml [Cont.]
cynomolgus monkey CRTh2 [10] = target: T2, cynomolgus monkey CRTh2; assay: ratio of Scatchard KD values, cyno against human CRTh2 on 293 cells
Procedure: The filters were counted on a Wallac Wizard 1470 gamma counter. The binding data was evaluated using NewLigand software (Genentech), which uses the fitting algorithm of Munson and Rodbard to determine the binding affinity of the anti-CRTh2 antibody (Munson and Rodbard, Anal. Biochem, 1980; 107: 220-239).
as §2, §3

human CRTh2 [11] = target: T3, human CRTh2; assay: flow cytometry, 293 cells expressing amino-terminal gD-tagged human CRTh2; antibody at 10, 1 and 0.1 ug/ml

B5: humanized and engineered anti-CRTh2 antibody hu19A2.v12 (antibody, human IgG1, kappa, V domains shown)
VH: EVQLVESGGGLVQPGGSLRLSCAASGFTFSSYSMSWVRQAPGKGLEWVAYISNGGSTTDYPGTVEGRFTISRDNSKNTLYLQMNSLRAEDTAVYYCARHRTNWDFDYWGQGTLVTVSS
VL: DIQMTQSPSSLSASVGDRVTITCRASENIYWNLAWYQQKPGKAPKLVVYAATQLADGVPSRFSGSGSGTDYTLTISSLQPEDFATYYCQHFWITPWTFGQGTKVEIKR
notes: Human IgG1; whole antibody as used in flow cytometry; also called h19A2.v12
binding result (rhesus monkey CRTh2 [6]): binds

B6: h19A2.v46 Fab fragment (Fab, V domains shown)
VH: B5 VH with S33L, Y50R
VL: DIQMTQSPSSLSASVGDRVTITCRASENIYWNLAWYQQKPGKAPKLVVYAATQLADGVPSRFSGSGSGTDYTLTISSLQPEDFATYYCQHFWITPWTFGQGTKVEIK
notes: Fab fragment of the humanized IgG; also called h19A2.v46 (Fab fragment of IgG)
Kd (cynomolgus monkey CRTh2 [7]): 8.6 nM | Kd (human CRTh2 [8]): 6.4 nM

B7: humanized affinity matured anti-CRTh2 antibody hu19A2.v46 (antibody, human IgG1, kappa, V domains shown)
VH: B5 VH with S33L, Y50R
VL: B5 VL
notes: Human IgG1; whole antibody as used in flow cytometry; also called h19A2.v46
binding result (rhesus monkey CRTh2 [9]): binds

B9: humanized affinity matured anti-CRTh2 antibody hu19A2.v52 (antibody, human IgG1, kappa, V domains shown)
VH: B5 VH with S33L, Y50R
VL: B5 VL with W31Y
notes: Human IgG1; whole antibody as used in flow cytometry and the cAMP assay; also called h19A2.v52; h19A2.52
binding result (rhesus monkey CRTh2 [9]): binds

B11: humanized anti-CRTh2 antibody hu19A2.v1 (antibody, human IgG1, kappa, V domains shown)
VH: B5 VH with D59Y
VL: B5 VL with W31S
notes: also called h19A2.v1
binding result (human CRTh2 [11]): binds

More lines, now with the values ahead:

binding result (rhesus monkey CRTh2 [1]): no binding (tested: 20 ug/ml) | binding result (cynomolgus monkey CRTh2 [2]): no binding (tested: 20 ug/ml)
B1: murine anti-CRTh2 antibody 31A5 (antibody, mouse IgG2a, V domains shown)
VH: QVQLKESGPGLVAPSQSLSITCTVSGFSLTGYGVNWVRQPPGKGLEWLGMIWDDGTTDFDSALRSRLSISKDNSKSQVFLKMNSLQTDDTARYFCARGDYGYAMDYWGQGTSVTVSS
VL: DIQMTQSPASLSVSVGETVTITCRASVNIYSNLAWYQQRQGKSPQLLVYAATNLAEGVPSRFSGSGSGTQYSLKINSLQSEDFGSYYCQHFWVTPYTFGGGTKLEIK
notes: Mouse monoclonal (hybridoma antibody; heavy chain also recloned with mouse IgG2a Fc); also called mu31A5

Kd (human CRTh2 [3]): 10.2 nM | Kd (human CRTh2 [4]): 2 nM
B2: murine anti-CRTh2 antibody 19A2 (antibody, V domains shown)
VH: EVKLVESGGGLVQPGGSLKLSCAASGFTFSSYSMSWVRQTPEKRLEWVAYISNGGSTTYYPGTVEGRFTISRDNAKNTLFLQMSSLRSKDTAMYYCARHRTNWDFDYWGQGTTLTVSS
VL: B1 VL with V27E, R39K, L47V, N53Q, E56D, V93I, Y96W
notes: whole IgG in the Scatchard assay; also called mu19A2; Mab 19A2

binding result (rhesus monkey CRTh2 [1]): no binding (tested: 20 ug/ml) | binding result (cynomolgus monkey CRTh2 [2]): no binding (tested: 20 ug/ml) | binding result (human CRTh2 [5]): binds
B3: murine anti-CRTh2 antibody 3C12 (antibody, mouse IgG2a, V domains shown)
VH: QVQLQQSGADLVRPGTSVKVSCKASGYAFTNYLIDWVKQRPGQGLEWIGAIHPGSGRTHYNEKFKGKATLTADKSSSAAYMQISSLTSDDSAVFFCARSGGSSFDYYAMDYWGQGTSVTVSS
VL: DIQMTQSPSSLSASLGERVSLTCRASQEIGGYLSWLQQKPDGTFKRLIYAASTLDSGVPKRFSGSRSGSDYSLTISSLESEDFADYYCLQYANYPYTFGGGTKLEIK
notes: Mouse monoclonal (hybridoma antibody; heavy chain also recloned with mouse IgG2a Fc); also called mu3C12

Kd (human CRTh2 [4]): 2.6 nM
B4: murine anti-CRTh2 antibody 8B1 (antibody, V domains shown)
VH: QVQLQQSGTGLVRPGTSVRVSCKASGYAFITYLIEWIKQRPGQGLEWIGVIHPGSGNSHYNEKFKGKATLTADTSSSTAYMQLSSLTSGDSAVYFCARSGSSSFDYYAMDFWGQGTSVTVSS
VL: B3 VL with G30S, L33F, F44I
notes: Mouse monoclonal, hybridoma antibody or recloned with mouse IgG2a Fc; whole IgG in the Scatchard assay; also called mu8B1; Mab 8B1

relative binding affinity for human versus cynomolgus CRTh2 (cynomolgus monkey CRTh2 [10]): ≤ 2 fold | Kd (cynomolgus monkey CRTh2 [7]): 21.3 nM | Kd (human CRTh2 [8]): 13.7 nM
B8: h19A2.v52 Fab fragment (Fab, V domains shown)
VH: B5 VH with S33L, Y50R
VL: B6 VL with W31Y
notes: Fab fragment of the humanized IgG; also called h19A2.v52 (Fab fragment of IgG); h19A2.52

Kd (cynomolgus monkey CRTh2 [7]): 39 nM | Kd (human CRTh2 [8]): 56 nM
B10: h19A2.v60 Fab fragment (Fab, V domains shown)
VH: B5 VH with S33L, Y50R
VL: B6 VL with W31Y, V47L, V48I, D56E
notes: Fab fragment of the humanized IgG; also called h19A2.v60 (Fab fragment of IgG)

relative binding affinity for human versus cyno CRTh2 (cynomolgus monkey CRTh2 [10]): ≤ 3 fold | Kd (cynomolgus monkey CRTh2 [7]): 152 nM | Kd (human CRTh2 [8]): 51 nM
B12: h19A2.v12 Fab fragment (Fab, V domains shown)
VH: B5 VH
VL: B6 VL
notes: Fab fragment of the humanized IgG, 125I-labelled in the radioligand assay; also called h19A2.v12 (Fab fragment of IgG); h19A2.12
